Data: patent US20040018971A1 (published 2004)

B1: HER2/neu peptide, position 730, 10 amino acids (peptide)
peptide: AFGTVYKGIW
notes: also called Her2/neu.730 (10-mer)
B2: HER2/neu peptide, position 705, 10 amino acids (peptide)
peptide: AMPNQAQMRI
notes: also called Her2/neu.705 (10-mer)
B3: HER2/neu peptide, position 475, 11 amino acids (peptide)
peptide: CFVHTVPWDQL
notes: also called Her2/neu.475 (11-mer)
B4: HER2/neu peptide, position 440, 9 amino acids (peptide)
peptide: AYSLTLQGL
notes: also called Her2/neu.440 (9-mer)
B5: HER2/neu peptide, position 342, 9 amino acids (peptide)
peptide: CYGLGMEHL
notes: also called Her2/neu.342 (9-mer)
B6: HER2/neu peptide, position 440, 11 amino acids (peptide)
peptide: AYSLTLQGLGI
notes: also called Her2/neu.440 (11-mer)
B7: HER2/neu peptide, position 1216, 8 amino acids (peptide)
peptide: AFDNLYYW
notes: also called Her2/neu.1216 (8-mer)
B8: HER2/neu peptide, position 414, 9 amino acids (peptide)
peptide: AWPDSLPDL
notes: also called Her2/neu.414 (9-mer)
B9: HER2/neu peptide, position 162, 8 amino acids (peptide)
peptide: CYQDTILW
notes: also called Her2/neu.162 (8-mer)
B10: HER2/neu peptide, position 363, 9 amino acids (peptide)
peptide: EFAGCKKIF
notes: also called Her2/neu.363 (9-mer)
B11: HER2/neu peptide, position 826, 11 amino acids (peptide)
peptide: CMQIAKGMSYL
notes: also called Her2/neu.826 (11-mer)
B12: HER2/neu peptide, position 475, 8 amino acids (peptide)
peptide: CFVHTVPW
notes: also called Her2/neu.475 (8-mer)
B13: HER2/neu peptide, position 730, 9 amino acids (peptide)
peptide: AFGTVYKGI
notes: also called Her2/neu.730 (9-mer)
B14: HER2/neu peptide, position 863, 10 amino acids (peptide)
peptide: DFGLARLLDI
notes: also called Her2/neu.863 (10-mer)
B15: HER2/neu peptide, position 730, 11 amino acids (peptide)
peptide: AFGTVYKGIWI
notes: also called Her2/neu.730 (11-mer)
B16: HER2/neu peptide, position 705, 11 amino acids (peptide)
peptide: AMPNQAQMRIL
notes: also called Her2/neu.705 (11-mer)
B17: HER2/neu peptide, position 890, 9 amino acids (peptide)
peptide: ALESILRRR
B18: HER2/neu peptide, position 1212, 10 amino acids (peptide)
peptide: AFSPAFDNLY
B19: HER2/neu peptide, position 293, 9 amino acids (peptide)
peptide: ASCVTACPY
notes: also called Her2/neu.293
B20: HER2/neu peptide, position 180, 9 amino acids (peptide)
peptide: ALTLIDTNR
B21: HER2/neu peptide, position 705, 9 amino acids (peptide)
peptide: AMPNQAQMR
notes: T0001 prints N there
B22: HER2/neu A02 supermotif peptide, position 776, 10 amino acids (peptide)
peptide: GVGSPYVSRL
notes: Synthetic peptide
B23: HER2/neu A02 supermotif peptide, position 832, 10 amino acids (peptide)
peptide: GMSYLEDVRL
notes: Synthetic peptide
B24: HER2/neu A02 supermotif peptide, position 858, 9 amino acids (peptide)
peptide: HVKITDFGL
notes: Synthetic peptide
B25: HER2/neu A02 supermotif peptide, position 152, 10 amino acids (peptide)
peptide: GVLIQRNPQL
notes: Synthetic peptide
B26: HER2/neu A02 supermotif peptide, position 136, 10 amino acids (peptide)
peptide: GLRELQLRSL
notes: Synthetic peptide
B27: HER2/neu A02 supermotif peptide, position 447, 9 amino acids (peptide)
peptide: GLGISWLGL
notes: Synthetic peptide
B28: HER2/neu A02 supermotif peptide, position 809, 9 amino acids (peptide)
peptide: HVRENRGRL
notes: Synthetic peptide
B29: HER2/neu A02 supermotif peptide, position 737, 10 amino acids (peptide)
peptide: GIWIPDGENV
notes: Synthetic peptide
B30: HER2/neu A02 supermotif peptide, position 878, 9 amino acids (peptide)
peptide: HADGGKVPI
notes: Synthetic peptide
B31: HER2/neu A02 supermotif peptide, position 344, 10 amino acids (peptide)
peptide: GLGMEHLREV
notes: Synthetic peptide
B32: HER2/neu A02 supermotif peptide, position 654, 10 amino acids (peptide)
peptide: IISAVVGILL
notes: Synthetic peptide

Molecular target: T1, HLA-A*2401 (human)
T1 construct: Purified HLA class I molecule (kind: MHC class I); also called A*2402
Assay: inhibition of 125I-labelled standard peptide binding to purified HLA, gel filtration

| relative binding ratio | Binder |
| --- | --- |
| 0.001 ratio (IC50 of standard peptide / IC50 of test peptide) | B1 |
| 0.0002 ratio (IC50 of standard peptide / IC50 of test peptide) | B2 |
| 0.0003 ratio (IC50 of standard peptide / IC50 of test peptide) | B3 |
| 0.13 ratio (IC50 of standard peptide / IC50 of test peptide) | B4 |
| 0.018 ratio (IC50 of standard peptide / IC50 of test peptide) | B5 |
| 0.023 ratio (IC50 of standard peptide / IC50 of test peptide) | B6 |
| 0.0039 ratio (IC50 of standard peptide / IC50 of test peptide) | B7 |
| 0.0041 ratio (IC50 of standard peptide / IC50 of test peptide) | B8 |
| 0.012 ratio (IC50 of standard peptide / IC50 of test peptide) | B9 |
| 0.0003 ratio (IC50 of standard peptide / IC50 of test peptide) | B10 |
| -0.0003 ratio (IC50 of standard peptide / IC50 of test peptide) | B11 |
| 0.019 ratio (IC50 of standard peptide / IC50 of test peptide) | B12 |
| 0.0002 ratio (IC50 of standard peptide / IC50 of test peptide) | B13 |
| 0.0002 ratio (IC50 of standard peptide / IC50 of test peptide) | B14 |
| 0.0008 ratio (IC50 of standard peptide / IC50 of test peptide) | B15 |
| -0.0003 ratio (IC50 of standard peptide / IC50 of test peptide) | B16 |

Molecular target: HLA-A*1101 (human)
Assay: competitive inhibition of 125I-labeled probe peptide binding to purified HLA-A*1101, gel filtration

| relative binding ratio | Binder |
| --- | --- |
| 0.0006 ratio (IC50 of standard peptide / IC50 of test peptide) | B17 |
| 0.0003 ratio (IC50 of standard peptide / IC50 of test peptide) | B18 |
| 0.0074 ratio (IC50 of standard peptide / IC50 of test peptide) | B19 |
| 0.0005 ratio (IC50 of standard peptide / IC50 of test peptide) | B20 |
| 0.0006 ratio (IC50 of standard peptide / IC50 of test peptide) | B21 |

Molecular target: T2, HLA-A*0201 (human)
T2 construct: also called HLA-A2.1
Assay: competition with 125I-labelled standard peptide 941.01 ([..]) on purified HLA, gel filtration

| relative binding ratio | Binder |
| --- | --- |
| 0.0001 ratio (IC50 of standard peptide / IC50 of test peptide) | B22 |
| 0.0017 ratio (IC50 of standard peptide / IC50 of test peptide) | B23 |
| 0.0002 ratio (IC50 of standard peptide / IC50 of test peptide) | B24 |
| 0.0036 ratio (IC50 of standard peptide / IC50 of test peptide) | B25 |
| 0.0001 ratio (IC50 of standard peptide / IC50 of test peptide) | B26 |
| 0.0018 ratio (IC50 of standard peptide / IC50 of test peptide) | B27 |
| 0.0002 ratio (IC50 of standard peptide / IC50 of test peptide) | B28 |
| 0.0002 ratio (IC50 of standard peptide / IC50 of test peptide) | B29 |
| 0.0002 ratio (IC50 of standard peptide / IC50 of test peptide) | B30 |
| 0.0017 ratio (IC50 of standard peptide / IC50 of test peptide) | B31 |
| 0.012 ratio (IC50 of standard peptide / IC50 of test peptide) | B32 |
